B1: SLIKHKIML (SEQ ID NO: 77) (peptide)
peptide: SLIKHKIML
notes: source gene ATP6V1A
B2: KIPPVSPSI (SEQ ID NO: 98) (peptide)
peptide: KIPPVSPSI
notes: source gene ARRDC3
B3: GLASFKSFL (SEQ ID NO: 8) (peptide)
peptide: GLASFKSFL
notes: source gene RGS5
B4: GLAPHLEQI (SEQ ID NO: 99) (peptide)
peptide: GLAPHLEQI
notes: source gene IPO4
B5: YLMDEGAHL (SEQ ID NO: 84) (peptide)
peptide: YLMDEGAHL
notes: source gene UGDH
B6: FLFRDILEL (SEQ ID NO: 92) (peptide)
peptide: FLFRDILEL
notes: source gene DROSHA
B7: FVMSEIRTV (SEQ ID NO: 85) (peptide)
peptide: FVMSEIRTV
notes: source gene ZNF618
B8: HIYDKAFITV (SEQ ID NO: 101) (peptide)
peptide: HIYDKAFITV
notes: source gene FLT1
B9: SLLLAVTEV (SEQ ID NO: 89) (peptide)
peptide: SLLLAVTEV
notes: source gene JAG2
B10: ALADIVWRA (SEQ ID NO: 79) (peptide)
peptide: ALADIVWRA
notes: source gene FAM188B
B11: ILHHKVYDL (SEQ ID NO: 94) (peptide)
peptide: ILHHKVYDL
notes: source gene CYB5A
B12: TLLKTIIKV (SEQ ID NO: 66) (peptide)
peptide: TLLKTIIKV
notes: source gene CC2D2A
B13: FLIKSINLV (SEQ ID NO: 75) (peptide)
peptide: FLIKSINLV
notes: source gene KBTBD3
B14: TLAETLVNL (SEQ ID NO: 96) (peptide)
peptide: TLAETLVNL
notes: source gene ANKRD52
B15: GLIEDHFDVTV (SEQ ID NO: 63) (peptide)
peptide: GLIEDHFDVTV
notes: source gene ERAP1
B16: LLDVLAPLV (SEQ ID NO: 67) (peptide)
peptide: LLDVLAPLV
notes: source gene COL18A1
B17: KLTDVGIATL (SEQ ID NO: 95) (peptide)
peptide: KLTDVGIATL
notes: source gene ALPK2
B18: ILADLLPSL (SEQ ID NO: 69) (peptide)
peptide: ILADLLPSL
notes: source gene DHRS7B
B19: SLLPALPKL (SEQ ID NO: 81) (peptide)
peptide: SLLPALPKL
notes: source gene LRP2
B20: SLLQATDFMSL (SEQ ID NO: 82) (peptide)
peptide: SLLQATDFMSL
notes: source gene THY1
B21: KLNVAPLAV (SEQ ID NO: 100) (peptide)
peptide: KLNVAPLAV
notes: source genes MZT2A, MZT2B
B22: TLAELHISL (SEQ ID NO: 88) (peptide)
peptide: TLAELHISL
notes: source gene NLRC5
B23: ALLDTVVQA (SEQ ID NO: 78) (peptide)
peptide: ALLDTVVQA
notes: source genes CACNA1I, CACNA1H
B24: GLLQGKLALL (SEQ ID NO: 86) (peptide)
peptide: GLLQGKLALL
notes: source gene NQO2
B25: GLFHKQVTV (SEQ ID NO: 74) (peptide)
peptide: GLFHKQVTV
notes: source gene PDZD2
B26: IIYGGSVTGA (SEQ ID NO: 65) (peptide)
peptide: IIYGGSVTGA
notes: source genes TPI1, TPI1P1
B27: FTLEKNFVI (SEQ ID NO: 90) (peptide)
peptide: FTLEKNFVI
notes: source gene COL6A2
B28: TLISELVQA (SEQ ID NO: 97) (peptide)
peptide: TLISELVQA
notes: source gene CUL7
B29: IQWSIVPEV (SEQ ID NO: 83) (peptide)
peptide: IQWSIVPEV
notes: source gene GRAMD4
B30: LLFDVHTTL (SEQ ID NO: 102) (peptide)
peptide: LLFDVHTTL
notes: source gene C5orf42
B31: ILLQKPDSV (SEQ ID NO: 9) (peptide)
peptide: ILLQKPDSV
notes: source gene RGS5
B32: FLLSLIDRL (SEQ ID NO: 7) (peptide)
peptide: FLLSLIDRL
notes: source gene EGLN3
B33: GVMAGDIYSV (SEQ ID NO: 93) (peptide)
peptide: GVMAGDIYSV
notes: source gene PLIN2
B34: YSLEKVFGI (SEQ ID NO: 72) (peptide)
peptide: YSLEKVFGI
notes: source gene MAGED2
B35: GLDGIPFTV (SEQ ID NO: 73) (peptide)
peptide: GLDGIPFTV
notes: source gene TRIP6
B36: MLLSSLVSL (SEQ ID NO: 91) (peptide)
peptide: MLLSSLVSL
notes: source gene VKORC1
B37: SLMGILLRI (SEQ ID NO: 61) (peptide)
peptide: SLMGILLRI
notes: source gene CARD8
B38: LLAASVALA (SEQ ID NO: 64) (peptide)
peptide: LLAASVALA
notes: source gene NPTX2
B39: VLAGPAFLVQL (SEQ ID NO: 62) (peptide)
peptide: VLAGPAFLVQL
notes: source gene SLC47A1
B40: YVLTQPPSV (SEQ ID NO: 68) (peptide)
peptide: YVLTQPPSV
notes: source genes IGLV3-21, IGLV2-14, IGLJ3, IGLC1, IGLC2
B41: VLADDHLIEV (SEQ ID NO: 76) (peptide)
peptide: VLADDHLIEV
notes: source genes PDZK1P2, PDZK1, PDZK1P1
B42: ALDGHLYAV (SEQ ID NO: 71) (peptide)
peptide: ALDGHLYAV
notes: source gene KBTBD11
B43: KLASMLETL (SEQ ID NO: 80) (peptide)
peptide: KLASMLETL
notes: source gene PRKCDBP
B44: VLFELSKTV (SEQ ID NO: 6) (peptide)
peptide: VLFELSKTV
notes: source gene ATP11A

Molecular target: T1, HLA-A*02:01 (human)
T1 construct: MHC monomers first loaded with a UV-sensitive peptide (not identified) that is cleaved by UV light and exchanged for the test peptide; captured on streptavidin plates, detected with anti-β2m; also called peptide-receptive MHC molecules; MHC class I
Experiment: UV-ligand exchange + anti-b2m ELISA; peptide exchange yield grade (+ >=10%, ++ >=20%, +++ >=50, ++++ >=75%)
Source text: Candidate peptides for T cell based therapies according to the present invention were further tested for their MHC binding capacity (affinity). The individual peptide-MHC complexes were produced by UV-ligand exchange, where a UV-sensitive peptide is cleaved upon UV-irradiation, and exchanged with the peptide of interest as analyzed. Only peptide candidates that can effectively bind and stabilize the peptide-receptive MHC molecules prevent dissociation of the MHC complexes. To determine the yield of the exchange reaction, an ELISA was performed based on the detection of the light chain (β2m) of stabilized MHC complexes. The assay was performed as generally described in Rodenko et al. (Rodenko et al., 2006).
96 well MAXISorp plates (NUNC) were coated over night with 2 ug/ml streptavidin in PBS at room temperature, washed 4× and blocked for 1h at 37° C. in 2% BSA containing blocking buffer. Refolded HLA-A*02:01/MLA-001 monomers served as standards, covering the range of 15-500 ng/ml. Peptide-MHC monomers of the UV-exchange reaction were diluted 100 fold in blocking buffer. Samples were incubated for 1 h at 37° C., washed four times, incubated with 2 ug/ml HRP conjugated anti-β2m for 1h at 37° C., washed again and detected with TMB solution that is stopped with […]. Absorption was measured at 450 nm. Candidate peptides that show a high exchange yield (preferably higher than 50%, most preferred higher than 75%) are generally preferred for a generation and production of antibodies or fragments thereof, and/or T cell receptors or fragments thereof, as they show sufficient avidity to the MHC molecules and prevent dissociation of the MHC complexes.

Row | peptide exchange yield [%] | Binder
1 | 20 to 50 | B1
2 | 20 to 50 | B2
3 | 20 to 50 | B3
4 | 20 to 50 | B4
5 | 20 to 50 | B5
6 | 50 to 75 | B6
7 | 50 to 75 | B7
8 | 20 to 50 | B8
9 | 20 to 50 | B9
10 | 50 to 75 | B10
11 | 20 to 50 | B11
12 | 20 to 50 | B12
13 | 50 to 75 | B13
14 | 50 to 75 | B14
15 | 20 to 50 | B15
16 | 20 to 50 | B16
17 | 20 to 50 | B17
18 | 20 to 50 | B18
19 | 20 to 50 | B19
20 | 50 to 75 | B20
21 | 20 to 50 | B21
22 | 20 to 50 | B22

Row | peptide exchange yield [%] | Binder
23 | 20 to 50 | B23
24 | 20 to 50 | B24
25 | 50 to 75 | B25
26 | 20 to 50 | B26
27 | 20 to 50 | B27
28 | 20 to 50 | B28
29 | 50 to 75 | B29
30 | 50 to 75 | B30
31 | 20 to 50 | B31
32 | 50 to 75 | B32
33 | ≥ 75 | B33
34 | 20 to 50 | B34
35 | 50 to 75 | B35
36 | 20 to 50 | B36
37 | 20 to 50 | B37
38 | 20 to 50 | B38
39 | 50 to 75 | B39
40 | 20 to 50 | B40
41 | 20 to 50 | B41
42 | 50 to 75 | B42
43 | 50 to 75 | B43
44 | 50 to 75 | B44
